The values that follow come from publication PMC2683891.

Common to all, as to assay: purified protein
Holding throughout (format): biochemical, Campylobacter jejuni
What all share (details): 100 mM HEPES pH 7.5, 200 mM KCl, 1.8 mM DTNB, 25 °C

Substrate in data set [1]: CCCCCCCCCCCCCCCC(=O)SCCNC(=O)CCNC(=O)[C@H](O)C(C)(C)COP(=O)(O)OP(=O)(O)OC[C@H]1O[C@@H](n2cnc3c(N)ncnc32)[C@H](O)[C@@H]1OP(=O)(O)O
Substrate in data set [2]: CCCCCCCCCCCC(=O)SCCNC(=O)CCNC(=O)[C@H](O)C(C)(C)COP(=O)(O)OP(=O)(O)OC[C@H]1O[C@@H](n2cnc3c(N)ncnc32)[C@H](O)[C@@H]1OP(=O)(O)O
Substrate in data set [3]: CCCCCC(=O)SCCNC(=O)CCNC(=O)[C@H](O)C(C)(C)COP(=O)(O)OP(=O)(O)OC[C@H]1O[C@@H](n2cnc3c(N)ncnc32)[C@H](O)[C@@H]1OP(=O)(O)O
Substrate in data set [4]: CCCC(=O)SCCNC(=O)CCNC(=O)[C@H](O)C(C)(C)COP(=O)(O)OP(=O)(O)OC[C@H]1O[C@@H](n2cnc3c(N)ncnc32)[C@H](O)[C@@H]1OP(=O)(O)O

B1: Cj0915 (Campylobacter jejuni subsp. jejuni NCTC 11168 = ATCC 700819) (protein)
chain: MRDMGEPKLKIVAMPSDTNPAGNIFGGWILSQIDLAGAIAARELSPERVVTISMDKVVFKEPVFIGDIISCYSKVVNVGNTSISVEVEVTAQRVDSQGCTSCINVTSALVTYVSVTRDGKKNPISEELKRIHGFLNA
Take B1: the Km in “purified protein [1]” turned out to be 10.6 ± 0.6 µM; in “purified protein [2]”, 13.9 ± 1.4 µM; in “purified protein [3]”, 39.3 ± 15.2 µM; in the data set “purified protein [4]”, 40.8 ± 10.3 µM. Also, the maximal velocity (Vmax) in “purified protein [1]” turned out to be 38.9 µmol/min/mg; in “purified protein [2]” it was 63.3 µmol/min/mg; in “purified protein [3]”, 54.3 µmol/min/mg; in the data set “purified protein [4]”, 55 µmol/min/mg. For the same protein, the turnover number (kcat) in “purified protein [1]” is 9.6 ± 0.3 s⁻¹; in the data set “purified protein [2]”, 15.6 ± 0.7 s⁻¹; in the data set “purified protein [3]” it was 13.4 ± 2 s⁻¹; in the data set “purified protein [4]”, 13.6 ± 1.3 s⁻¹. For the same protein, the specificity constant (kcat/Km) in “purified protein [1]” amounted to 910000 M⁻¹ s⁻¹; in “purified protein [2]”, 1.1e+06 M⁻¹ s⁻¹; in “purified protein [3]” it was 340000 M⁻¹ s⁻¹; in the data set “purified protein [4]”, 330000 M⁻¹ s⁻¹.
